According to the DeepSol protein solubility set:

Assay: soluble on expression in E. coli; label from the status in PepcDB or PDB records
With “MKVLCYGVRDVELPIFEACNKEFGYDIKCVPDYLNTKETAEMAAGFDAVILRGNCFANKQNLDIYKKLGVKYILTRTAGTDHIDKEYAKELGFPMAFVPRYSPNAIAELAVTQAMMLLRHTAYTTSRTAKKNFKVDAFMFSKEVRNCTVGVVGLGRIGRVAAQIFHGMGATVIGEDVFEIKGIEDYCTQVSLDEVLEKSDIITIHAPYIKENGAVVTRDFLKKMKDGAILVNCARGQLVDTEAVIEAVESGKLGGYGCDVLDGEASVFGKDLEGQKLENPLFEKLVDLYPRVLITPHLGSYTDEAVKNMVEVSYQNLKDLAETGDCPNKIK” the “soluble on expression in E. coli” value was “soluble”.
In the case of “AEPTTHFGYQNVPESQKAKKVAEVFHSVAAKYDLMNDLMSGGIHRLWKRFTIELSGVRSGNRVLDIAGGTGDLTRQFSRLVGPTGEVVLADINASMLKVGRDKLLDKGVSGNVSFVQADAEKLPFPDNHFDCVTIAFGLRNVTHKDEAIRSMLRVLKPGGRLLVLEFSKPSSNLLSKAYDAYSFSLLPLMGKLVTNDSESYRYLAESIRMHPDQETLKAMMVEAGFDRVTYHNMTGGIV”, the “soluble on expression in E. coli” value is reported as “not soluble”.
With “MVQHLSAQEIIQYISDAKKSTPLKVYVNGHFENVTFPESFKVFGSEHSKVIFCEANEWKQFYQQNHSLITELEIEMDRRNSAIPLKDL” the “soluble on expression in E. coli” value was “not soluble”.
In the case of “MGGSHHHHHHGMASALSQATKRKHVVKEVLGEHIVPSNQQQIVRVLRTPGNNLHEVETAQGQRFLVSMPSKYRKNIWIKRGDFLIVDPIEEGEKVKAEISFVLCKDHVRSLQKEGFWPEAFSEVAEKHNNRNRQTQPELPAEPQLSGEESSSEDDSDLFVNTNRRQYHESEEESEEEEAA”, the “soluble on expression in E. coli” value is reported as “not soluble”.
With “MTSGQFKPVPQILMELPPAEQQRLFNEAAAIIRHLEWTDAVQLTALVMGSEALQQQLLAMLVNYVTKELRAEIQYDD” the “soluble on expression in E. coli” value was “soluble”.
With “MAHHHHHHMPFVVTHPPDTAELVEGEPFYSLAMYTLLSSTTDVVPALRNFTFQLRAFNVLPPYDAVGLLSGIDSTGLIVWGGALGFLEWLVQHPDRLQARMRNVSKAQAHVIELGCGSGVVAVALCALLRGLDLPDLVEKSISSSPAVCVWATDGNPECVSLAERNLRAQLKEPCTSCPGVAASAALLRWGDAAAVQEALQTSFPGCTAASSITVVAADVLYDAAVVPLLVSTVAEIARVHVAGAGPSTLPGSVEWWLAYTPRSLTRALNEAIFQALLDSIADHGWTYELVDLPAGAVATGFEENPDCSVPALSGCILVVQVTCDTRS” the “soluble on expression in E. coli” value was “not soluble”.
For “MSLKHYQRINELEEKKIKLRERPVIDELSKVKKLKLTGQTEALFESWRSSWDEIETRLFPDLEEVLLEAEMNTDRYKFRSATHAENDIEQMLVVIEKQMDQILGGLKELLISEEKNAKESRATKEKFAELRREVLTRGFKLGETLPYIETKLSELSESLNSYDSLTDQGDHLEAREIVIVVQKEMQVIEAQMERIPSLLHETDTILPEEMTKLRAGYEEMVRKGYYLAQMELDKEISRMKNQIDKMKKNVINLDLDEAEQGVEELHNEIDLFYDTLEHEAEARHFVKENHSPTSDKLQRQNAVSDALAEQITEVKQTYHVAEDDLAVYLKTSAKLSEAKENFEQLTALIASGEIAYSAAQDTLKEIDAALITISAEQDKFAEELRSLRKDELEARDDAERMRRAIITLDRKMERERLPGLPEEYLSLREHMGESINALEKRLEEKPLNMKAVSQDWRIAEEDLTHLTEKAEEMMENVRLVEHVIQYANRYRLRNKELADELVQAENHFYNDYQYKKALEIAVTALEKVETGAFKKVEKAYESKVSVDEGHHHHHH”, the “soluble on expression in E. coli” value was “soluble”.
With “MSLKTQQLLTIGQLAKFSGLHVKALRYYEKIGILNPTAIDKQNGYRYYSYAHIPYVNMIKICANYGLPLKQFTHYILDDGSIDMNAILKEAQLKIEEKERQLQSDERYLRFFSEQINFSQKLDKTTNLHIEQGNKDYFLLPFTGEMLSAKYYEAVRCALAEIEKCQMTFDDRVGCYFKYDDQQVNSFIAIKIKECQEDKTNFLSLCLNHRHIHAQHLTKDRIQPKIKELHQKESINEFLILETFESPYQLSQPHLEMQYVVDNTGEGHHHHHH” the “soluble on expression in E. coli” value was “soluble”.
For “MSPLWLVVFIVPLASGISLSDCSKKNSCYGSPVNCQPGIDCHVLLRFEDDGTLDVHLQNFTAPDGYVALAYNSNQNAPTEYLICIPHERKRLRGISSQGEIITITEQNMAQYVAQMDTNTFICSFVGKEIPSNFRMQSNFVVSEGLFANESNIPTTYKLEPISTDSVFFHPIAATIGRQDEALSEDEEKLATDLLGKVQRLSDHDSESTDMEAILNEKNRFTIEEFEEKLFSAMSNRRRPIKKFEREEEDQDDDEYSEVEEKESHPKKRREHKKGRHTRVLSDEQEEDYDQYEDDMPSKKRKRPFNSEELENGEDVDFGKKSNKNSQKGTFDGQRQR”, the “soluble on expression in E. coli” value was “not soluble”.
In the case of “MSTPRTVLVVGGGAAGNAVTILLRRAGLTVDLVEAKDDWNATAGSGITLQGNALRVLRELGVWEQVEASGFGFGSVGITTPDGTVLHVQDDLRTGGDDLPATVGMQRPRLQQILIEAVRASGASVRLGTTAEILDQDSDGVHVRLSDGSEHRYDLVVAADGLGSATRAAIGITDKPEPTGMAIWRIAAPRPAGLTRTDLAYGGPAHIAGYCPTGETTLYAYVVEANRDRAGIPPASYADEMRGLTRHYGGFWPDITEHITDPAKVNYTWFDRLLVEGSWHRGRVVLVGDAAHCCPPTLAQGAALSLEDAWVLAQMLTGSDVWDDALFQAYYERRIARVRPVVAASVQIGQWQLDGVRDADLPGLMGRTMTMLRELPLEHHHHHH”, the “soluble on expression in E. coli” value is reported as “not soluble”.
With “MATADVKSTVPHMDMDRGGAFDFSNCIRNQAMCKMGGKAPKLTSTGTTIVAVAFKGGLVMGADSRATAGNIIADKHCEKVHKLTESIYACGAGTAADLDQVTKMLSGNLRLLELNTGRKARVITALRQAKQHLFNYQGYIGAYLLIGGVDPTGPHLYMCSANGTTMAFPFTAQGSGSYAAITILERDFKVDMTKDEAEKLVQRALEAGMHGDNASGNSLNLVIIEPSETVFKGPIVPEFCKRPEPNDLVYKFQAGATKVLKHKTYKYDVVESMDITH” the “soluble on expression in E. coli” value was “not soluble”.
With “MQKVESIIIGGGPCGLSAAIEQKRKGIDTLIIEKGNVVESIYNYPTHQTFFSSSDKLSIGDVPFIVEESKPRRNQALVYYREVVKHHQLKVNAFEEVLTVKKMNNKFTITTTKDVYECRFLTIATGYYGQHNTLEVEGADLPKVFHYFKEAHPYFDQDVVIIGGKNSAIDAALELEKAGANVTVLYRGGDYSPSIKPWILPNFTALVNHEKIDMEFNANVTQITEDTVTYEVNGESKTIHNDYVFAMIGYHPDYEFLKSVGIQINTNEFGTAPMYNKETYETNIENCYIAGVIAAGNDANTIFIENGKFHGGIIAQNMLAKKQTPLES” the “soluble on expression in E. coli” value was “soluble”.
In the case of “SPQRKVANNKQNIEYNDDNHVHHMHSHNPPIDCAILLPSKPRFIFQDVTVFNFNVSGNPSDLNTPVVQFNLSFRNPNANIRIYYDTLDVYAFYGNGSQQIIIPTPMPSTYQGHKEDSVWSPYIPVVPYNALYLDDQHHSRDGNMLMLHLDGRISWLLLGN”, the “soluble on expression in E. coli” value is reported as “soluble”.
For “MGHHHHHHSHMECETDEQKQGSDENMSECETSSVCSSSDTGLFTNDEGRQGDDEQSDWFYEGECVPGFTVPNLLPKWAPDHCSEVERMDSGLDKFSDSTFLLPSRPAQRGYHTRLNRLPGAAARCLRKGRRRLVGKETSINTLGTERISHIISDPRQKDFWLPSAGKRERNQFNPLSPLYSLDVLADASHRRCSPAHCSARQANVHWGPPCSRVIKRKRKPVATASLSSPSAVHMDAVEPTTPASQAPKSPSSEWLVRTSAAEKATDATTATFFKMPQEKSPGYS”, the “soluble on expression in E. coli” value was “not soluble”.
In the case of “MQKFILSAFVVALVAADCALKCPDGYFSFKRAPSAKNSMTGLWCVKAILSDTLISPNQAKQVCEKDGSILTSFENLDERTKLATVLRDFLSAKKLDRGGMIVDGHRLKNCETDDRTVLNAEPCRNSSTGFTTDEKHTDNTFMWKSWADTEPGQSIFEKQIESCLQLAISQFKSRTELINDVFCNYVKHPQNEGAYDLWNYGAVCGRLPEWN”, the “soluble on expression in E. coli” value is reported as “not soluble”.
For “MDKPVDKPAKGKRPAAAGRGSKPRSASAERVRRHREKMKAMGLKPVTIWVPEDYNSPEYKAEIRRECELINADPESEIVLEGMWELADFGDWKA”, the “soluble on expression in E. coli” value was “not soluble”.
In the case of “MKQLKSLDSDLEKAIGRISGGLYIITAQKGEVKGAMLASWVSQASFNPPGFTVAVAKDRAIESLMQVGDRFVLNILEEGNYQILMKHFLKRFPPGADRFAGVKTQTASNGSPILTDALAYLECEVASRMECSDHWIVYSQVTNGRVAKAEGLTAVHHRKVGNYYLEHHHHHH”, the “soluble on expression in E. coli” value is reported as “not soluble”.
In the case of “MGSDKIHHHHHHMQLSKAAEMCYEITNSYLHIDQKSQIIASTQEAIRLTRKYLLSEIFVRWSPLNGEISFSYNGGKDCQVLLLLYLSCLWEYFFIKAQNSQFDFEFQSFPMQRLPTVFIDQEETFPTLENFVLETSERYCLSLYESQRQSGASVNMADAFRDFIKIYPETEAIVIGIRHTDPFGEALKPIQRTDSNWPDFMRLQPLLHWDLTNIWSFLLYSNEPICGLYGKGFTSIGGINNSLPNPHLRKDSNNPALHFEWEIIHAFGKDAEGERSSAINTSPISVVDKERFSKYHDNYYPGWYLVDDTLERAGRIKN”, the “soluble on expression in E. coli” value is reported as “not soluble”.
In the case of “MPKWISIDEAAHKYGVKEEDICLWAEMEAITAYFTETTLIIDEKSLQKFMYLRKNLPTTGYIRTLEQLCINQSEVCKLYMEVIELQEKDLQYKKRRISVLERQYAMATKQNKLREKIITITSDMLSKAESGWWEKLWMKISNRQKL”, the “soluble on expression in E. coli” value is reported as “not soluble”.
In the case of “MGSDKIHHHHHHMAGLRVFVSSTCYDLSVIRSQLRIFIQSLGHEPLMSDYSDLLYDPRLHTHTSCVDEVATADIVVLIVGARFGGKTVPEALAKLDFDLLKKESKSTESLIKKENLSVTQLEILKAVESGIPVFTFVDSSVWHDHALYEKNKDKPIINDISFPSIEKAETASFIFEFINFLRHRARGNSVYTFSKLQDIEDTLRRQWSSLFQKLIQEQRSKAFEAKRLDNLTEQFEDLKTAILTSIGTTNERDVARGVVRFRRLIDFVRSLGLKDHNFLIRGHHPWDELLHYAEIEKVLDAAELPEEFIFHRRNFGSRPRMFLIKNDGTFFELRTSPDFFHSLSLEWEAFMDLPEDTREIIVDALSEMRPGMGPLRYIREPFDYHVDKWIHQERLLKDIDDSDHESSHS”, the “soluble on expression in E. coli” value is reported as “not soluble”.
In the case of “MEYRMFDIGVNLTSSQFAKDRDDVVACAFDAGVNGLLITGTNLRESQQAQKLARQYSSCWSTAGVHPHDSSQWQAATEEAIIELAAQPEVVAIGECGLDFNRNFSTPEEQERAFVAQLRIAADLNMPVFMHCRDAHERFMTLLEPWLDKLPGAVLHCFTGTREEMQACVAHGIYIGITGWVCDERRGLELRELLPLIPAEKLLIETDAPYLLPRDLTPKPSSRRNEPAHLPHILQRIAHWRGEDAAWLAATTDANVKTLFGIAF”, the “soluble on expression in E. coli” value is reported as “soluble”.
With “KVVAKGLGLSKAYVGQKSSFTVDCSKAGNNMLLVGVHGPRTPCEEILVKHVGSRLYSVSYLLKDKGEYTLVVKWGHEHIPGSPYRVVVP” the “soluble on expression in E. coli” value was “soluble”.
In the case of “MGSDKIHHHHHHMSAQVQDLTPIKGVTYYYPPHDAVLVFKDGAAEIPYGGLPVPLLEEDYASLDGEPSYDAVGRGVYQTLRTNPDCIHCAAYATLLRDAYPHYLAELASHAIMLDSKDVEVPYIDRKIVSLKVLSLLEPDNAGLPLEIGRAYLDRGLRLSALHMSTVSIYRAEHFLRRALELTPEDGRALRLLGEVCYLLGKYEEAASCWLDTLDLADADEAERFRVRLARISEGRLPLIAPVDYLEAIGAAFTCFHTGDYEEAVAILQDVLMDGIFCAEFPIADIHCVIGKSFVQLDMPRYAEESFRAALQLDPAHEESLACLRKVTGEE”, the “soluble on expression in E. coli” value is reported as “not soluble”.
In the case of “MSLENYWVDERTLVVSGDFFGVSTGLLGGWKRVRHAFNHTVSEEFHSMEPAEYLRKVARGYGLKSYFGLLTSVPIEKLSVKGCGEVTVFATAGVMNPNERVGTINIIAVFECRMSRAAMLNAIITATEAKTKALLEEGHNFTGTNTDAVVVLCTQKGGYHRYCGPASEVGQKLWRCAGEAVKDSLARWEGHHHHHH”, the “soluble on expression in E. coli” value is reported as “not soluble”.
